Measurements published in paper PMC2890523, “Identification of archaeal proteins that affect the exosome function in vitro”.

How the values were obtained:
[1] = target: PaRrp4-exosome (Pyrococcus abyssi) (UniProt Q9V120)
[2] = target: RNase PH ring (PaRrp41-PaRrp42 complex) (Pyrococcus abyssi)
[3] = target: PaCsl4-exosome (Pyrococcus abyssi)
[4] = target: PaRrp4-exosome (Pyrococcus abyssi) (UniProt Q9V120); remark: listed apart in the source
[5] = target: PaCsl4-exosome (Pyrococcus abyssi); remark: listed apart in the source
[6] = target: T1, PaRrp41;PaRrp42 (Pyrococcus abyssi;Pyrococcus abyssi, UniProt Q9V119;Q9V118 1-249;1-274, |); test: EMSA; no phosphate added; PaRrp4-exosome binds 3-fold more efficiently; some RNA degradation; 1 pmol RNA in 20 ul; 20 mM Tris-HCl pH 8.0, 20 mM KCl, 2 mM MgCl2, 1 mM DTT, 100 ug/ml BSA, 0.8 U RNasin (or conditions of earlier work, ref 21), 37 C, 30 min; settings: protein: recombinant;recombinant; tags: pET29a vector;pAE vector; chain copies: 3;3; label: 5'-32P; single strand
T1 sequence 1: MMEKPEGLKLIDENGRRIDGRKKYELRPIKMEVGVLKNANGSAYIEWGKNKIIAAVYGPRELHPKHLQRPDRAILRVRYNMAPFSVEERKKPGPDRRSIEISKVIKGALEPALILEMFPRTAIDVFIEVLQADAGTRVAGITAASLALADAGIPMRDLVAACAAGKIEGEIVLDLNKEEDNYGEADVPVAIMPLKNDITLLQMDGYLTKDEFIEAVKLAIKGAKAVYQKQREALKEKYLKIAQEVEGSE
T1 sequence 2: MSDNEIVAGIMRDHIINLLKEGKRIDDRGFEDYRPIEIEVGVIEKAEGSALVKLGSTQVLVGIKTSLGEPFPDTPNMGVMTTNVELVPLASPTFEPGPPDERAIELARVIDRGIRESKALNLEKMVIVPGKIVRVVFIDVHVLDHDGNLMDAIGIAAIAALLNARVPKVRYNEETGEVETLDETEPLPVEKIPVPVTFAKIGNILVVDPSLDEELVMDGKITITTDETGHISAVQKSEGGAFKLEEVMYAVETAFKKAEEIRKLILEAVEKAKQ

[7] = target: T2, PaRrp41;PaRrp42;PaCsl4 (Pyrococcus abyssi;Pyrococcus …, UniProt Q9V119;Q9V118;Q9V2M2 1-249;1-274;1-199, ||); test: EMSA; no phosphate added; 1 pmol RNA in 20 ul; 20 mM Tris-HCl pH 8.0, 20 mM KCl, 2 mM MgCl2, 1 mM DTT, 100 ug/ml BSA, 0.8 U RNasin (or conditions of earlier work, ref 21), 37 C, 30 min; settings: protein: recombinant;recombinant;recombinant; tags: pET29a vector;pAE vector;pET28a vector; chain copies: 3;3;3; label: 5'-32P; single strand
T2 sequence 1: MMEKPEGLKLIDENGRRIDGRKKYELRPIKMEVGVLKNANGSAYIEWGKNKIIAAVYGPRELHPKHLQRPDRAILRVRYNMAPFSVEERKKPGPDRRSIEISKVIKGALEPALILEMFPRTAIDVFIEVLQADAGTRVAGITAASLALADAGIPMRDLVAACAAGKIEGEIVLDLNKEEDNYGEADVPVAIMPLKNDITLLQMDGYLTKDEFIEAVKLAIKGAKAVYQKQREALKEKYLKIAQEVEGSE
T2 sequence 2: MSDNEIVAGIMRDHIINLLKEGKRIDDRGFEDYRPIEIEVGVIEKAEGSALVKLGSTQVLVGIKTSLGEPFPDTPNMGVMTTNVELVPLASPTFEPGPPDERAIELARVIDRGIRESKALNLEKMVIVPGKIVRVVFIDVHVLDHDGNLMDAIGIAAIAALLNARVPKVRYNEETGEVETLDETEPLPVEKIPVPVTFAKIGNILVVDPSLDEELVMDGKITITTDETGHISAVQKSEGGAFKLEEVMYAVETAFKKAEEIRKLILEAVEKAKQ
T2 sequence 3: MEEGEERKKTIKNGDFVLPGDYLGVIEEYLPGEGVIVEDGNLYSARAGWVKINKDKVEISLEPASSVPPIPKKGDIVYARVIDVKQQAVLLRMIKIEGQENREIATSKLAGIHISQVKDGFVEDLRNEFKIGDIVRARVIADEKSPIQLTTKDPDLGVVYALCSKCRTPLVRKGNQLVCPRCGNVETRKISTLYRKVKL

[8] = target: T3, PaRrp41;PaRrp42;PaRrp4 (Pyrococcus abyssi;Pyrococcus …, UniProt Q9V119;Q9V118;Q9V120 1-249;1-274;1-265, ||); test: EMSA; no phosphate added; 9-fold vs PaCsl4-exosome; 1 pmol RNA in 20 ul; 20 mM Tris-HCl pH 8.0, 20 mM KCl, 2 mM MgCl2, 1 mM DTT, 100 ug/ml BSA, 0.8 U RNasin (or conditions of earlier work, ref 21), 37 C, 30 min; settings: protein: recombinant;recombinant;recombinant; tags: pET29a vector;pAE vector;; chain copies: 3;3;3; label: 5'-32P; single strand
T3 sequence 1: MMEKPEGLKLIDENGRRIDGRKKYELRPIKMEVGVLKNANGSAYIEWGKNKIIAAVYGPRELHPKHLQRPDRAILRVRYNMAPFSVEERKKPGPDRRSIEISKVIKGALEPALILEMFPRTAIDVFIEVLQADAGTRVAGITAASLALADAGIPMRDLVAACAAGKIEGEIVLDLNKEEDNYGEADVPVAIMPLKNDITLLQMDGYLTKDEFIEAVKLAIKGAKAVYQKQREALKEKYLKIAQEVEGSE
T3 sequence 2: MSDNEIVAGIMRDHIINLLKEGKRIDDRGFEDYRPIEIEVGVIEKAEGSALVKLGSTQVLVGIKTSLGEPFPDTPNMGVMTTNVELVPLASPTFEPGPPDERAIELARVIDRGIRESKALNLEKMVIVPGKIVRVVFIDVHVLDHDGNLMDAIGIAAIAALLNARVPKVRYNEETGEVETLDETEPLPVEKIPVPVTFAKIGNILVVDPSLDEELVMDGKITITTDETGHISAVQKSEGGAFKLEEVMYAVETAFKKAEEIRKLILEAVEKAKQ
T3 sequence 3: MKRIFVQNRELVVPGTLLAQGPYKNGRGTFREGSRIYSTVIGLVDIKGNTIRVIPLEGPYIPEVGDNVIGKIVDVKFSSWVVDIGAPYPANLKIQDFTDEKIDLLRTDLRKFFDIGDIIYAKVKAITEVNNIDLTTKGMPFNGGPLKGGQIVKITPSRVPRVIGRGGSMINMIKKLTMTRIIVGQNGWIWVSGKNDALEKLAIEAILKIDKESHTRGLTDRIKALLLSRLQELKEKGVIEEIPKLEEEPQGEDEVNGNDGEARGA

[9] = target: T4, PaSBDS (Pyrococcus abyssi, UniProt Q9V121 1-236); test: EMSA; 200 pmol; smear, low stability complex; 1 pmol RNA in 20 ul; 20 mM Tris-HCl pH 8.0, 20 mM KCl, 2 mM MgCl2, 1 mM DTT, 100 ug/ml BSA, 0.8 U RNasin (or conditions of earlier work, ref 21), 37 C, 30 min; settings: protein: recombinant; tags: pET-28a vector, Ni-NTA purified (His tag); label: 5'-32P; single strand
[10] = target: T4, PaSBDS; test: EMSA; 50-400 pmol; 1 pmol RNA in 20 ul; 20 mM Tris-HCl pH 8.0, 20 mM KCl, 2 mM MgCl2, 1 mM DTT, 100 ug/ml BSA, 0.8 U RNasin (or conditions of earlier work, ref 21), 37 C, 30 min; settings: protein: recombinant, tags: pET-28a vector, Ni-NTA purified (His tag), label: 5'-32P
[11] = target: T3, PaRrp41;PaRrp42;PaRrp4; test: EMSA; 10 mM NaH2PO4, 65 C, 15 min; 1 pmol RNA in 20 ul; 20 mM Tris-HCl pH 8.0, 20 mM KCl, 2 mM MgCl2, 1 mM DTT, 100 ug/ml BSA, 0.8 U RNasin (or conditions of earlier work, ref 21), 37 C, 30 min; settings: protein: recombinant;recombinant;recombinant; tags: pET29a vector;pAE vector;; chain copies: 3;3;3; label: 5'-32P; can form intra- and inter-strand base pairs of low stability
[12] = target: T2, PaRrp41;PaRrp42;PaCsl4; test: as above; settings: protein: recombinant;recombinant;recombinant; tags: pET29a vector;pAE vector;pET28a vector; chain copies: 3;3;3; label: 5'-32P; can form intra- and inter-strand base pairs of low stability
[13] = target: T1, PaRrp41;PaRrp42; test: EMSA; 10 mM NaH2PO4, 65 C, 15 min; less efficient than holo-exosomes; 1 pmol RNA in 20 ul; 20 mM Tris-HCl pH 8.0, 20 mM KCl, 2 mM MgCl2, 1 mM DTT, 100 ug/ml BSA, 0.8 U RNasin (or conditions of earlier work, ref 21), 37 C, 30 min; settings: protein: recombinant;recombinant; tags: pET29a vector;pAE vector; chain copies: 3;3; label: 5'-32P; can form intra- and inter-strand base pairs of low stability

PaNip7 (natural protein)
decrease in poly-rA binding by the exosome complex (EMSA, 1-20 pmol complex) in the presence of 100 pmol PaNip7 [1]: 40 fold
decrease in poly-rA binding by the exosome complex (EMSA, 1-20 pmol complex) in the presence of 100 pmol PaNip7 [2]: 3 fold
decrease in poly-rA binding by the exosome complex (EMSA, 1-20 pmol complex) in the presence of 100 pmol PaNip7 [3]: 20 fold
inhibition of the RNase activity on 14-mer poly-rA (1, 5 or 10 pmol complex, 65°C, 10 mM NaH2PO4) by 100 pmol PaNip7 [4]: 3.8 fold
inhibition of the RNase activity on 14-mer poly-rA (1, 5 or 10 pmol complex, 65°C, 10 mM NaH2PO4) by 100 pmol PaNip7 [5]: 6.1 fold

AAAAAAAAAAAAAA (ssRNA) [poly-rA 14-mer]
binding result [6]: binds
binding signal [7]: 9 fold less efficient than PaRrp4-exosome
binding signal [8]: 3 fold vs RNase PH ring
binding result [9]: binds

UUAUUAUUUAUUUAUUAUUUA (ssRNA) [poly-rAU 21-mer]
binding result ([10]; can form intra- and inter-strand base pairs of low stability): binds
binding result [11]: binds
binding result [12]: binds
binding result [13]: binds

CCCCCCCCCCCCC (ssRNA) [poly-rC 13-mer]
binding result ([10]; single strand): no binding
